Assays:
[1] = Enzyme assay on microsomal preparations of S. cerevisiae expressing STORR fusion or modules, substrate (S)-reticuline; format: biochemical
Source text: (§1) Genscript created synthetic DNA sequences were created for PsCPR [Genbank accession AAC05021, (Rosco A. et al. (1997) Arch. Biochem. Biophys. 348, 369-77), the full length STORR (CYP82Y2-Oxidoreductatse (“Oxired”)) protein, the N-terminal CYP82Y2 module and C-terminal oxidoreductase (Oxidoreductase) module, that were codon optimised for expression is Saccharomyces cerevisiae. The codon-optimized sequences are provided with the SEQ ID NO 30-33.
(§2) Expression vector pESC-TRP::soloxired was created by digesting the corresponding PCR product with NotI and PacI and inserting this behind the GAL10 promoter of pESC-TRP. pESC-TRP::CPR was created by digesting the corresponding PCR product with BamHI and XhoI and inserting this behind the GAL1 promoter of pESC-TRP. This was then used to created pESC-TRP::CPR::CYP82Y2 and pESC-TRP::CPR::CYP82Y2-Oxidoreductase. These plasmids were then transformed in S. cerevisiae G175 (Sorger D. et al. (2004) J. Biol. Chem. 279, 31190-6) using lithium acetate protocol (Geitz R. D. and Woods R. A. (2002) Methods in Enzymology 350, 87-96). Yeasts were cultivated in Synthetic Defined (SD) medium composed of 2% carbon source, 0.5% ammonium sulfate, 1.7 g L^−1 yeast nitrogen base (without amino acids and ammonium sulfate) and 1.92 g L^−1 or tryptophan drop-out supplement (Sigma-Aldrich, Gillingham, UK). Cultures grown using glucose as a carbon source were used to inoculate 200 ml cultures with raffinose as a carbon source to an OD 600 nm of 0.10 in 1 L conical flasks. […]
(§3) Enzymes assays were set up in 250 μL volumes containing final concentrations of 50 mM Bis-tris propane buffer, 1 mM NADPH and 100 μM of substrate. […] The extract was then dissolved in 100 μL of 50:50:0.1 hexane/ethanol/diethylamine and analysed by the chiral HPLC method to determine the relative amounts of (R)- and (S)-reticuline.
(§4) Poppy capsules were processed and analysed by UPLC-MS and R-scripts as previously described (“the standard method”; (Winzer T. et al. (2012) Science 336, 1704-8)). […]

[2] = Enzyme assay on soluble/microsomal preparations of S. cerevisiae expressing STORR fusion or modules, substrate 1,2-dehydroreticuline; format: biochemical; settings: soluble or microsomal preparations from S. cerevisiae; 100 μM substrate, 1 mM NADPH, 37° C. 3 hours
Source text: as §1, §2, §3, §4

B1: CYP82Y2 module: N-terminal CYP82Y2 module of STORR (codon optimized SEQ ID NO 32) expressed with opium poppy CPR redox partner in S. cerevisiae (protein)
chain: MELQYISYFQPTSSVVALLLALVSILSSVVVLRKTFLNNYSSSPASSTKTAVLSHQRQQSCALPISGLLHIFMNKNGLIHVTLGNMADKYGPIFSFPTGSHRTLVVSSWEMVKECFTGNNDTAFSNRPIPLAFKTIFYACGGIDSYGLSSVPYGKYWRELRKVCVHNLLSNQQLLKFRHLIISQVDTSFNKLYELCKNSEDNHGNYTTTTTTAAGMVRIDDWLAELSFNVIGRIVCGFQSGPKTGAPSRVEQFKEAINEASYFMSTSPVSDNVPMLGWIDQLTGLTRNMKHCGKKLDLVVESIINDHRQKRRFSRTKGGDEKDDEQDDFIDICLSIMEQPQLPGNNNPSQIPIKSIVLDMIGGGTDTTKLTTIWTLSLLLNNPHVLDKAKQEVDAHFRTKRRSTNDAAAAVVDFDDIRNLVYIQAIIKESMRLYPASPVVERLSGEDCVVGGFHVPAGTRLWANVWKMQRDPKVWDDPLVFRPDRFLSDEQKMVDVRGQNYELLPFGAGRRVCPGVSFSLDLMQLVLTRLILEFEMKSPSGKVDMTATPGLMSYKVIPLDILLTHRRIKPCVQSAASERD
modifications: co-expressed with poppy CPR in yeast; Yeast codon optimized CYP82Y2
[1]; microsomal preparations from S. cerevisiae, with CPR redox partner, 100 μM substrate, 37° C. 3 hours
  conversion of (S)-reticuline to 1,2-dehydroreticuline: ~100%
[2]
  conversion efficiency of 1,2-dehydroreticuline to (R)-reticuline: not

B2: STORR fusion: Full length CYP82Y2-oxidoreductase fusion protein (SEQ ID NO 1; codon optimized SEQ ID NO 31) expressed with PsCPR in S. cerevisiae (protein, listed as Papaver somniferum)
chain: MELQYISYFQPTSSVVALLLALVSILSSVVVLRKTFLNNYSSSPASSTKTAVLSHQRQQSCALPISGLLHIFMNKNGLIHVTLGNMADKYGPIFSFPTGSHRTLVVSSWEMVKECFTGNNDTAFSNRPIPLAFKTIFYACGGIDSYGLSSVPYGKYWRELRKVCVHNLLSNQQLLKFRHLIISQVDTSFNKLYELCKNSEDNHGNYTTTTTTAAGMVRIDDWLAELSFNVIGRIVCGFQSGPKTGAPSRVEQFKEAINEASYFMSTSPVSDNVPMLGWIDQLTGLTRNMKHCGKKLDLVVESIINDHRQKRRFSRTKGGDEKDDEQDDFIDICLSIMEQPQLPGNNNPSQIPIKSIVLDMIGGGTDTTKLTTIWTLSLLLNNPHVLDKAKQEVDAHFRTKRRSTNDAAAAVVDFDDIRNLVYIQAIIKESMRLYPASPVVERLSGEDCVVGGFHVPAGTRLWANVWKMQRDPKVWDDPLVFRPDRFLSDEQKMVDVRGQNYELLPFGAGRRVCPGVSFSLDLMQLVLTRLILEFEMKSPSGKVDMTATPGLMSYKVIPLDILLTHRRIKPCVQSAASERDMESSGVPVITLGSGKVMPVLGMGTFEKVGKGSERERLAILKAIEVGYRYFDTAAAYETEEVLGEAIAEALQLGLVKSRDELFISSMLWCTDAHADRVLLALQNSLRNLKLEYVDLYMLPFPASLKPGKITMDIPEEDICRMDYRSVWAAMEECQNLGFTKSIGVSNFSCKKLQELMATANIPPAVNQVEMSPAFQQKKLREYCNANNILVSAISVLGSNGTPWGSNAVLGSEVLKKIAMAKGKSVAQVSMRWVYEQGASLVVKSFSEERLRENLNIFDWELTKEDHEKIGEIPQCRILSAYFLVSPNGPFKSQEELWDDEA
modifications: co-expressed with PsCPR
[1]; microsomal fractions harboring the fusion protein
  accumulation of 1,2-dehydroreticuline during conversion of (S)- to (R)-reticuline: no detectable accumulation
[1]; microsomal preparations from S. cerevisiae, with CPR, 100 μM substrate, 37° C. 3 hours
  added (S)-reticuline converted to (R)-reticuline: about 20%
[2]
  conversion efficiency of 1,2-dehydroreticuline to (R)-reticuline: 100%

From patent US10006010B2, “Cytochrome P450 fusion protein” (The University of York, priority 2014, dated 2018)
